By koff is commonly meant a measure of how fast the partners let go of each other.

The target of assay [1] is T1, biotinylated mouse recombinant IL-12Rβ2 (produced in-house) (mouse, UniProt P97378 24-637, random biotinylated).
T1 construct: Soluble recombinant protein used for panning, ELISA and BLI; also called mIL-12RB2; mIL12RB2
T1 sequence: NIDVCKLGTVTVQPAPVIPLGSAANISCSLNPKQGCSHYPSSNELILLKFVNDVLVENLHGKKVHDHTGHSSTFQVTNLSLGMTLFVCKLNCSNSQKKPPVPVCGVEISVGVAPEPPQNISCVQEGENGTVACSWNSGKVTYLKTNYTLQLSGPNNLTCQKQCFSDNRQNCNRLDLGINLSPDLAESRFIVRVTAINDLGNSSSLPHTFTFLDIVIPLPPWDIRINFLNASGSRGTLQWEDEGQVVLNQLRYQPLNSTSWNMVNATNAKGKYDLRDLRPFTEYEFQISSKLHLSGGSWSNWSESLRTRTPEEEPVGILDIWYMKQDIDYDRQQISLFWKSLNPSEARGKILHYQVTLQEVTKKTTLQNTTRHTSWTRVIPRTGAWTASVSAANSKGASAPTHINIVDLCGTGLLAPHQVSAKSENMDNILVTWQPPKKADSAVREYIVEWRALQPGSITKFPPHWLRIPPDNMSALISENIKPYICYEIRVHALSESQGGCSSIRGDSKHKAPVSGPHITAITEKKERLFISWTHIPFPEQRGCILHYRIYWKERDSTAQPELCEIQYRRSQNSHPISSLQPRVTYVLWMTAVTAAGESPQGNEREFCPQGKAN
The assay can be described thus: ELISA, periplasmic extract on biotinylated mouse IL-12Rβ2; signal over streptavidin control well.

Assay [2] deals with T2, biotinylated human recombinant IL-12Rβ2 (produced in-house) (human, UniProt Q99665 24-622, random biotinylated).
T2 construct: Soluble recombinant protein used for panning, ELISA and BLI; also called hIL-12RB2; hIL12RB2
T2 sequence: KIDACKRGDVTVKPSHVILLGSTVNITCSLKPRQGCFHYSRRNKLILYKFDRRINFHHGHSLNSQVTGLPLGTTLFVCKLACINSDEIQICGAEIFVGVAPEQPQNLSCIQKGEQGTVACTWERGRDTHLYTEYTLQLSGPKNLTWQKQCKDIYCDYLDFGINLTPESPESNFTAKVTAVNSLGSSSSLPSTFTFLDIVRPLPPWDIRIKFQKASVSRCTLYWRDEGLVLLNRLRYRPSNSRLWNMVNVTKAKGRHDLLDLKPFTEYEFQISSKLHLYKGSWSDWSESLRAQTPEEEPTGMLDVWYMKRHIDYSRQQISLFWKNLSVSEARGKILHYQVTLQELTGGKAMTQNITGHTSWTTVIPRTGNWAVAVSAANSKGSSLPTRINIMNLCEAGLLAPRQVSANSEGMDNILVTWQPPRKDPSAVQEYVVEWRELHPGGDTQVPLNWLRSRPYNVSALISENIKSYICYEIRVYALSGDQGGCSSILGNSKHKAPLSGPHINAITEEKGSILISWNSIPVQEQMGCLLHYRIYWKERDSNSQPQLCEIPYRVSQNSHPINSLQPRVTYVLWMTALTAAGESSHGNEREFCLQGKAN
The assay can be described thus: BLI (Octet Red), periplasmic extract on biotinylated human IL-12Rβ2 on streptavidin tips, 1:1 model. (In general: BLI is a label-free optical method that tracks binding on a fibre tip over time.)

Assay [3] concerns the target T3, human IL-12Rβ2 expressed on cells (human, UniProt Q99665 24-862).
T3 construct: the cell lines are described by plasmid or cDNA number only; also called hIL-12RB2; HEK293T transiently transfected with human IL-12Rβ2
T3 sequence: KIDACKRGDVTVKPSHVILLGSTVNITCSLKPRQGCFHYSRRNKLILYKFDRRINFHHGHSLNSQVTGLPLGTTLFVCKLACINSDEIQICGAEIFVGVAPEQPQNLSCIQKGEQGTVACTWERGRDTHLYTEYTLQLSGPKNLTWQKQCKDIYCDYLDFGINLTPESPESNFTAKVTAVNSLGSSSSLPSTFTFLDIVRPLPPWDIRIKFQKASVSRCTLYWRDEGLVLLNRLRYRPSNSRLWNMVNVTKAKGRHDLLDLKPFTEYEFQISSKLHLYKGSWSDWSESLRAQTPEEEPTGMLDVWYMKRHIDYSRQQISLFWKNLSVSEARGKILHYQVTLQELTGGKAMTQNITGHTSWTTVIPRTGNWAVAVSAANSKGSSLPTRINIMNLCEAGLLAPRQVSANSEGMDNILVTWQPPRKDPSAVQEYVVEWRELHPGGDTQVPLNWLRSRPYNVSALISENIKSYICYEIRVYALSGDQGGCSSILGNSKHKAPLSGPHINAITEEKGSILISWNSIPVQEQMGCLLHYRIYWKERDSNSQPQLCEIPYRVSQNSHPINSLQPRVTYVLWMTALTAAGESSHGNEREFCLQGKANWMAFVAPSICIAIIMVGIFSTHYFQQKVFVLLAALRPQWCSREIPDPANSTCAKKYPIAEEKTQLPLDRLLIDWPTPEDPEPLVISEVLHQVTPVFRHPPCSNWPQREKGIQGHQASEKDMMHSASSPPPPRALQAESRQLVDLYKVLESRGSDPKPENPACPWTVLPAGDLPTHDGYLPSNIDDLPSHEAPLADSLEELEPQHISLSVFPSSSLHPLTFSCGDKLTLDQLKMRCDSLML
The assay can be described thus: flow cytometry, periplasmic extract VHH-HA on HEK293T cells transiently expressing human IL-12Rβ2.

For assay [4], the target named is T1, biotinylated mouse recombinant IL-12Rβ2 …. The assay can be described thus: ELISA, periplasmic extract on biotinylated mouse IL-12Rβ2. (In general: In an ELISA, binding on a coated surface is turned into a signal by an enzyme label.)
Assay [5] deals with T2, biotinylated human recombinant IL-12Rβ2 …. The assay can be described thus: ELISA, periplasmic extract on biotinylated human IL-12Rβ2; signal over streptavidin control well.
Assay [6] shares this target. The assay can be described thus: BLI (Octet Red), periplasmic extract on biotinylated human IL-12Rβ2 on streptavidin tips.

B1: anti-IL-12Rβ2 VHH clone 3CRHS106 (clone ID 20429) (VHH)
VHH: QVQLQESGGGLVQPGGSLRLSCKASGFTFSTYAMSWVRQAPGKGLEWVSAVNSGGLSTDYADSVEGRFTISRDDAKNMLFLQMNSLKPEDTARYYCAKYEDCSDYMCHRDRAGYWGQGTQVTVSS
notes: Tested as periplasmic extract; not shown: C-terminal HA tag
For the molecule B1, the “mIL12RB2/control (ELISA)” value in assay [1] amounted to 1.03 ratio. Further, the koff in assay [2] came out at 0.00355 s⁻¹. In assay [3], the “% cells bound” value was 43.3% and the dMFI was 1010. Also, in assay [4], the binding result was “no binding”. Besides, the “hIL12RB2/control (ELISA)” value in assay [5] is 10.2 ratio. For the same molecule, the Response in assay [6] worked out at 0.297.

B2: anti-IL-12Rβ2 VHH clone 2CRH82 (clone ID 20372) (VHH)
VHH: QVQLQESGGGLVQAGGSLRLSCAASARTESMYAMAWFRQAPGKEREIVAGIIQSGGTTYISDYMKGRFSIDRGNAENTVYLQMDSLKPEDTAVYSCAAKVSSGTPSDIQISQSRWYDHWGQGTQVTVSS
notes: as for B1
For B2, in assay [1], the “mIL12RB2/control (ELISA)” value is 1.77 ratio. Besides, the koff in assay [2] came to 0.00274 s⁻¹. Further, in assay [3], the “% cells bound” value is 40.1% and the dMFI is 744. In addition, in assay [4], the binding result is “no binding”. In addition, the “hIL12RB2/control (ELISA)” value in assay [5] was 16.1 ratio. For the same molecule, in assay [6], the Response worked out at 0.426.

B3: anti-IL-12Rβ2 VHH clone 3CRHS51 (clone ID 20421) (VHH)
VHH: QVQLQESGGGLVQPGGSLRLSCAASGFTFSTYAMSWVRQAPGKGLEWVSAVNSGGLSTDYADSVEGRFTISRDDAKNMLFLQMNRLKPEDTARYYCAKYEDCSDYVCDRAGYWGQGTQVTVSS
notes: Tested as periplasmic extract; also called 3CRHSS1; not shown: C-terminal HA tag
On to B3, for which the koff in assay [2] stood at 0.0043 s⁻¹. In assay [3], the “% cells bound” value turned out to be 46% and the dMFI was 1140. In addition, in assay [4], the binding result is on record as “no binding”. Moreover, the Response in assay [6] was found to be 0.327.

B4: anti-IL-12Rβ2 VHH clone 3CRHS128 (clone ID 20432) (VHH)
VHH: QVQLQESGGGLVQPGGSLRLSCAASGFTFSTSGMHWFRQAPGKGLEWVSSIGATVDNSYYASSVKGRFTISRDNAKNTLYLLMNSLKSEDTAVYYCSKDPTGSSRGQGTQVTVSS
notes: as for B1
As to B4, in assay [1], the “mIL12RB2/control (ELISA)” value amounted to 0.98 ratio. The koff in assay [2] was found to be 0.00274 s⁻¹. In assay [3], the “% cells bound” value was found to be 50.5% and the dMFI came to 1380. Further, the binding result in assay [4] is “no binding”. Also, in assay [5], the “hIL12RB2/control (ELISA)” value stood at 3.65 ratio. The Response in assay [6] amounted to 0.294.

B5: anti-IL-12Rβ2 VHH clone 3CRH5 (clone ID 20373) (VHH)
VHH: QVQLQESGGGLVQAGGSLVLSCAASGSAALIFLMSWYRQAPGKQRELVAEVSRGGSTTYADSVEGRFTISRDNAKNIVDLQMNSLKPEDTAVYYCKADQNYGDSLRSSWGQGTQVTVSS
notes: Tested as periplasmic extract; also called 3CRHS; not shown: C-terminal HA tag
Turning to B5, in assay [1], the “mIL12RB2/control (ELISA)” value is 0.81 ratio. For the same molecule, the koff in assay [2] is 0.00337 s⁻¹. Moreover, in assay [3], the “% cells bound” value was 39.5% and the dMFI is 735. For the same molecule, the binding result in assay [4] is on record as “no binding”. The “hIL12RB2/control (ELISA)” value in assay [5] amounted to 8.64 ratio. The Response in assay [6] is 0.491.

B6: anti-IL-12Rβ2 VHH clone 3CAHS142 (clone ID 20401) (VHH)
VHH: QVQLQESGGGLVQAGESLTLSCIASGVIKDYAMGWFRQAPGKEREFVAAISWSGVSIYYADSVKGRFTISRDNAKNTVYLQMNSLEPEDTAVYYCAGTEGAYTVAGGSTFGYDMDYWGKGTQVTVSS
notes: as for B1
With B6, in assay [1], the “mIL12RB2/control (ELISA)” value came to 1.07 ratio. Also, the koff in assay [2] amounted to 0.00324 s⁻¹. In assay [3], the “% cells bound” value amounted to 40.9% and the dMFI is 812. For the same molecule, the binding result in assay [4] is “no binding”. Further, the “hIL12RB2/control (ELISA)” value in assay [5] amounted to 4.98 ratio. The Response in assay [6] amounted to 0.352.

B7: anti-IL-12Rβ2 VHH clone 3CAHS124 (clone ID 20400) (VHH)
VHH: QVQLQESGGGLVQPGGSLRLSCAASGRTINAYIMGWFRQAPGKEREFVAAVSGSGGSTYYADSVKGRFTISRDNAKNTVNLQMDNLRSEDTDVYYCAATYESVYLQNPGQYDYWGQGTQVTVSS
notes: as for B1
Take B7: the “mIL12RB2/control (ELISA)” value in assay [1] came out at 1 ratio. Besides, in assay [2], the koff was found to be 0.00324 s⁻¹. In assay [3], the “% cells bound” value was found to be 46.3% and the dMFI came out at 1100. Also, the binding result in assay [4] was “no binding”. Also, in assay [5], the “hIL12RB2/control (ELISA)” value stood at 5.67 ratio. In assay [6], the Response turned out to be 0.293.

B8: anti-IL-12Rβ2 VHH clone 3CRHS163 (clone ID 20438) (VHH)
VHH: QVQLQESGGGLVQPGGSLRLSCTASGFAFSTYWMYWIRQSPEKGFEWVSVVNTGGDITYYADSVKGRFTISRDNAKNTLYLQMNSLKPEDTALYYCARDRTTMSYTRTYYRGGQGTQVTVSS
notes: Tested as periplasmic extract; also called 3CANS142; not shown: C-terminal HA tag
In the case of B8, the “mIL12RB2/control (ELISA)” value in assay [1] was 0.93 ratio. Besides, the koff in assay [2] stood at 0.00302 s⁻¹. Also, in assay [3], the “% cells bound” value worked out at 43.7% and the dMFI was 1050. In addition, the binding result in assay [4] was “no binding”. Further, the “hIL12RB2/control (ELISA)” value in assay [5] came out at 3.58 ratio. Further, in assay [6], the Response came out at 0.339.

B9: anti-IL-12Rβ2 VHH clone 3CRHS54 (clone ID 20422) (VHH)
VHH: QVQLQESGGGLVQPGGSLRLSCTASGSIVSIYNMDWYRQAPGNEREWVASITSSGDPYYDGSAKGRFTISRDNAKMTVYLQMNSLEPEDTAVYFCKVPTEKGNYWGQGTQVTVSS
notes: Tested as periplasmic extract (P.E.) from the pMECS vector; not shown: C-terminal HA tag
With B9, the “mIL12RB2/control (ELISA)” value in assay [1] turned out to be 1.25 ratio. For the same molecule, in assay [2], the koff is 0.00272 s⁻¹. In assay [3], the “% cells bound” value was found to be 41.5% and the dMFI was 870. In addition, the binding result in assay [4] is on record as “no binding”. Also, the “hIL12RB2/control (ELISA)” value in assay [5] stood at 7.85 ratio. Moreover, the Response in assay [6] stood at 0.203.

B10: anti-IL-12Rβ2 VHH clone 3CRHS9 (clone ID 20415) (VHH)
VHH: QVQLQESGGGLVQPGGSLRLSCTASGSIVSIYNMDWYRQAPGNEREWVASITSSGDPYYDGSAKGRFTISRDNAKMTVYLQMNSLKPEDTAVYYCKVPTEKGNYWGQGTQVTVSS
notes: Tested as periplasmic extract; also called 3CRMS9; not shown: C-terminal HA tag
As for B10, in assay [1], the “mIL12RB2/control (ELISA)” value came to 1.09 ratio. Moreover, the koff in assay [2] was 0.0034 s⁻¹. Also, in assay [3], the “% cells bound” value was found to be 42.1% and the dMFI is 941. In addition, the binding result in assay [4] is given as “no binding”. For the same molecule, in assay [5], the “hIL12RB2/control (ELISA)” value was found to be 5.08 ratio. For the same molecule, the Response in assay [6] is 0.222.

Source of the values: patent publication US20260209362A1 (VIB VZW, published 2026).
